The text below walks through data of patent US20240117038A1 (Ablynx, published 2024).

Residue numbers refer to the chain shown, from its start. Numbers in names are those of the source.

Experiment [1] concerns the target T1, cynomolgus CX3CR1 (cynomolgus monkey (Macaca fascicularis), UniProt P49238 1-355 (human entry)).
T1 construct: Overexpressed on CHO K1 cells; also called cyno CX3CR1; cyCX3CR1
T1 chain: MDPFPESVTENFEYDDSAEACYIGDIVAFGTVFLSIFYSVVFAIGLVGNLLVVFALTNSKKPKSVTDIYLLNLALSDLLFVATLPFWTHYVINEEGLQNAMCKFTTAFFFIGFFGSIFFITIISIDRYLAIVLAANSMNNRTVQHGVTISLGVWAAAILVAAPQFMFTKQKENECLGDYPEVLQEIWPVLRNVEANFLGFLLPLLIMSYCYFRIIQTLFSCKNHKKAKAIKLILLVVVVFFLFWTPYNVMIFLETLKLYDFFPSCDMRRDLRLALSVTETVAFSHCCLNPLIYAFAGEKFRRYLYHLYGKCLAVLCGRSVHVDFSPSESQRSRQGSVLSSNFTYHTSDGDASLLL
Description: flow cytometry on CHO K1 cyCX3CR1 cells, 30 uM HSA. How it is done:
(§1) CHO cells overexpressing human or cynomolgus CX3CR1 were generated using techniques known in the art. Cells were harvested and resuspended in assay buffer (PBS, 2% FBS, 0.05% NaN3) and seeded separately in 384-well Bio-One V-bottom plates (Greiner, Cat. No. 781280), with a total of 2E04 cells seeded per well. After washing, serial dilutions of multivalent ISVD construct (starting from 250 nM, 3-fold dilution, 11 points, diluted in assay buffer), were added and incubated for 4 hours at 4° C. Binding was performed in the presence of 30 uM HSA (Sigma-Aldrich, Cat. No. A8763). Plates were then washed 3 times and cells were incubated with an anti-VHH mouse antibody (3300-fold diluted in assay buffer) for 30 minutes at 4′° C. […] Plates were finally washed 3 times and cells were resuspended in PI (Miltenyi Biotec, Cat. No. 130-093-233, 1000-fold diluted in assay buffer). Cell suspensions were analyzed with iQue Screener PLUS (Intellicyt). EC50s were estimated by dose response modelling. Curves were fit using 4 parameter logistic regression in GraphPad (GraphPad Software Inc.). A purified anti-human CX3CR1 antibody [K0124E1] (BioLegend, Cat. No. 355701/355702) was used as positive control to detect CX3CR1 expression on the cell surface.
For orientation: A flow cytometer gives signals particle by particle.

Experiment [2] concerns the target T2, human CX3CR1 (human, UniProt P49238 1-355).
T2 construct: Overexpressed on CHO K1, Ba/F3 or HEK293T cells; also called huCX3CR1; hCX3CR1
T2 sequence: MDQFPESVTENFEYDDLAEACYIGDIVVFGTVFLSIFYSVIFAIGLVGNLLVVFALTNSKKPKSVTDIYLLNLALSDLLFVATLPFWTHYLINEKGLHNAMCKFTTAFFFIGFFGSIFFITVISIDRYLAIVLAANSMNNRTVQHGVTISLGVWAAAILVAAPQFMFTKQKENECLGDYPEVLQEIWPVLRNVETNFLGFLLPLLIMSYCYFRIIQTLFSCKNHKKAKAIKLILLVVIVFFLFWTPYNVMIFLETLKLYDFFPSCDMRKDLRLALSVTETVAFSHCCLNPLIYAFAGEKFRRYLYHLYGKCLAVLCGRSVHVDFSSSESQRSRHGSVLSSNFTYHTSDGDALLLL
Description: competition flow cytometry vs soluble huCX3CL1-AF647 on CHO K1 huCX3CR1 cells, 30 uM HSA.

Experiment [3] addresses T1, cynomolgus CX3CR1. The experiment in a line: competition flow cytometry vs soluble huCX3CL1-AF647 on CHO K1 cyCX3CR1 cells, 30 uM HSA.
In experiment [4] the target is T2, human CX3CR1. Description: flow cytometry on CHO K1 huCX3CR1 cells, 30 uM HSA. How it is done: as §1
Experiment [5] has as its target T2, human CX3CR1. Description: competition flow cytometry vs huCX3CL1-AF647 (2E-10 M) on CHO K1 human CX3CR1 cells, 30 uM HSA. As to the method:
(§2) CHO cells overexpressing human or cyno CX3CR1 were generated using techniques known in the art. Cells were harvested and resuspended in assay buffer (PBS, 2% FBS, 0.05% NaN3). The cells were seeded in 384-well Bio-One V-bottom plates (Greiner, Cat. No. 781280), with a total of 2E04 cells seeded per well. After washing, ISVD proteins (starting from 250 nM, 3-fold dilution, 11 points, in assay buffer) were premixed with 30 μM HSA (Sigma-Aldrich, Cat. No. A8763) and human CX3CL1 labelled with AF647 (R&D Systems, Cat. No. 365-FR; labelled in house) at a final concentration of 2E-10 M (˜EC30) and added to the cells for 4 hours at 4° C. Plates were washed 3 times and cells were resuspended in PI (Miltenyi Biotec, Cat. No. 130-093-233, 1000-fold diluted in assay buffer). Cell suspensions were analysed with iQue Screener PLUS or iQue 3(Intellicyt). The IC50s were estimated by dose response modelling. Curves were fit using 4 parameter logistic regression in GraphPad (GraphPad Software Inc.).

In experiment [6] the target is T1, cynomolgus CX3CR1. Description: competition flow cytometry vs huCX3CL1-AF647 (2E-10 M) on CHO K1 cyno CX3CR1 cells, 30 uM HSA. How it is done:
as §2

B1: A041600042 (VHH)
chain: DVQLVESGGGSVQPGGSLRLSCAASGSIFSSTAMAWYRQAPGKRRDLVAAINTVGVTKYADSVKGRFTISRDNAKNTVYLQMNSLRPEDTALYYCTSDPRRGWDTRYWGQGTLVTVSSGGGGSGGGGSGGGGSGGGGSEVQLVESGGGSVQPGGSLRLSCAASGSIFSSTAMAWYRQAPGKRRDLVAAINTVGVTKYADSVKGRFTISRDNAKNTVYLQMNSLRPEDTALYYCTSDPRRGWDTRYWGQGTLVTVSSGGGGSGGGGSGGGGSGGGGSEVQLVESGGGVVQPGGSLRLSCAASGFTFRSFGMSWVRQAPGKGPEWVSSISGSGSDTLYADSVKGRFTISRDNSKNTLYLQMNSLRPEDTALYYCTIGGSLSRSSQGTLVTVSSA
notes: Trivalent ISVD construct (two anti-CX3CR1 ISVDs, one anti-albumin ISVD), C-terminal alanine included in the entry; also called 66B02_SO (E1D)-20GS-66B02_SO-20GS-ALB23002-A
As usually defined, the EC50 is the concentration that produces a half-maximal response. By % inhibition is commonly meant the drop in the measured response relative to a control, in per cent. In general, IC50 refers to the midpoint of a concentration-inhibition curve. On to B1, for which, in the experiment with cynomolgus CX3CR1 [1], the midpoint of the response, the EC50, lay at 0.12 nM and the top turned out to be 373000. Also, in the experiment with human CX3CR1 [2], the “% inhibition” value was 95% and the IC50 worked out at 1.4 nM. Also, in the experiment with cynomolgus CX3CR1 [3], the “% inhibition” value stood at 104% and the IC50 was 0.67 nM. In the experiment with human CX3CR1 [4], the EC50 stood at 0.13 nM and the top was found to be 40000.

B2: 66B02_SO (VHH)
VHH: EVQLVESGGGSVQPGGSLRLSCAASGSIFSSTAMAWYRQAPGKRRDLVAAINTVGVTKYADSVKGRFTISRDNAKNTVYLQMNSLRPEDTALYYCTSDPRRGWDTRYWGQGTLVTVSS
notes: Monovalent anti-CX3CR1 ISVD; The oligomerization and Tagg assays used a 3xFLAG-His6 tagged form made in E. coli
In the case of B2, the IC50 in the experiment with human CX3CR1 [5] stood at 0.48 nM; with cynomolgus CX3CR1 [6], 2.9 nM.

B3: 54A12_SO (VHH)
VHH: B2 VHH with R44Q, A50V, N52S, V56I, P99A
notes: as for B2
For B3, the figures for the IC50 with human CX3CR1 [5] and in the experiment with cynomolgus CX3CR1 [6] were 0.89 nM and 6 nM, respectively.

B4: A041600011 (VHH)
chain: DVQLVESGGGSVQPGGSLRLSCAASGSIFSSTAMAWYRQAPGKRRDLVAAINTVGVTKYADSVKGRFTISRDNAKNTVYLQMNSLRPEDTALYYCTSDPRRGWDTRYWGQGTLVTVSSGGGGSGGGSEVQLVESGGGSVQPGGSLRLSCAASGSIFSSTAMAWYRQAPGKRRDLVAAINTVGVTKYADSVKGRFTISRDNAKNTVYLQMNSLRPEDTALYYCTSDPRRGWDTRYWGQGTLVTVSSGGGGSGGGSEVQLVESGGGVVQPGGSLRLSCAASGFTFRSFGMSWVRQAPGKGPEWVSSISGSGSDTLYADSVKGRFTISRDNSKNTLYLQMNSLRPEDTALYYCTIGGSLSRSSQGTLVTVSSA
notes: Trivalent ISVD construct (two anti-CX3CR1 ISVDs, one anti-albumin ISVD), C-terminal alanine included in the entry; also called 66B02_SO (E1D)-9GS-66B02_SO-9GS-ALB23002-A
Turning to B4, in the experiment with cynomolgus CX3CR1 [1], the EC50 amounted to 0.11 nM and the top was 331000. Moreover, in the experiment with human CX3CR1 [2], the “% inhibition” value turned out to be 94% and the IC50 was determined as 0.66 nM. Moreover, in the experiment with cynomolgus CX3CR1 [3], the “% inhibition” value was found to be 111% and the IC50 turned out to be 1.2 nM. In addition, in the experiment with human CX3CR1 [4], the response was half-maximal at 0.079 nM (EC50) and the top turned out to be 44200.

B5: A041600040 (VHH)
chain: B4 chain with R171Q, A177V, N179S, V183I, P226A
notes: Trivalent ISVD construct (two anti-CX3CR1 ISVDs, one anti-albumin ISVD), C-terminal alanine included in the entry; also called 66B02_SO (E1D)-9GS-54A12_SO-9GS-ALB23002-A
Turning to B5, in the experiment with cynomolgus CX3CR1 [1], it took 0.14 nM to reach a half-maximal effect (EC50) and the top was found to be 363000. In addition, in the experiment with human CX3CR1 [2], the “% inhibition” value worked out at 101% and the IC50 stood at 0.99 nM. In the experiment with cynomolgus CX3CR1 [3], the “% inhibition” value was 117% and the IC50 came out at 0.62 nM. In the experiment with human CX3CR1 [4], this molecule yielded an EC50 of 0.1 nM and a top of 42200.

B6: A041600010 (VHH)
chain: DVQLVESGGGSVQPGGSLRLSCAASGSIFSSTAMAWYRQAPGKRRDLVAAINTVGVTKYADSVKGRFTISRDNAKNTVYLQMNSLRPEDTALYYCTSDPRRGWDTRYWGQGTLVTVSSGGGGSGGGSEVQLVESGGGVVQPGGSLRLSCAASGFTFRSFGMSWVRQAPGKGPEWVSSISGSGSDTLYADSVKGRFTISRDNSKNTLYLQMNSLRPEDTALYYCTIGGSLSRSSQGTLVTVSSGGGGSGGGSEVQLVESGGGSVQPGGSLRLSCAASGSIFSSTAMAWYRQAPGKRRDLVAAINTVGVTKYADSVKGRFTISRDNAKNTVYLQMNSLRPEDTALYYCTSDPRRGWDTRYWGQGTLVTVSSA
notes: Trivalent ISVD construct (two anti-CX3CR1 ISVDs, one anti-albumin ISVD); also called 66B02_SO (E1D)-9GS-ALB23002-9GS-66B02_SO-A
In the experiment with cynomolgus CX3CR1 [1], B6 yielded an EC50 of 0.46 nM and a top of 214000. In the experiment with human CX3CR1 [2], the “% inhibition” value worked out at 94% and the IC50 was 3.8 nM. In the experiment with cynomolgus CX3CR1 [3], the “% inhibition” value came to 113% and the IC50 turned out to be 2.4 nM. For the same molecule, in the experiment with human CX3CR1 [4], it took 0.41 nM to reach a half-maximal effect (EC50) and the top is 22800.

B7: A041600031 (VHH)
chain: B6 chain with R295Q, A301V, N303S, V307I, P350A
notes: Trivalent ISVD construct (two anti-CX3CR1 ISVDs, one anti-albumin ISVD), C-terminal alanine included in the entry; also called 66B02_SO (E1D)-9GS-ALB23002-9GS-54A12_SO-A
As for B7, in the experiment with cynomolgus CX3CR1 [1], the EC50 worked out at 0.32 nM and the top is 300000. Further, in the experiment with human CX3CR1 [2], the “% inhibition” value was 96% and the IC50 was determined as 2.1 nM. Moreover, in the experiment with cynomolgus CX3CR1 [3], the “% inhibition” value was 105% and the IC50 was determined as 1.2 nM. Further, in the experiment with human CX3CR1 [4], the EC50 came to 0.3 nM and the top worked out at 31300.

B8: A041600026 (VHH)
chain: DVQLVESGGGSVQPGGSLRLSCAASGSIFSSTAMAWYRQAPGKRRDLVAAINTVGVTKYADSVKGRFTISRDNAKNTVYLQMNSLRPEDTALYYCTSDPRRGWDTRYWGQGTLVTVSSGGGGSGGGGSGGGGSGGGGSEVQLVESGGGVVQPGGSLRLSCAASGFTFRSFGMSWVRQAPGKGPEWVSSISGSGSDTLYADSVKGRFTISRDNSKNTLYLQMNSLRPEDTALYYCTIGGSLSRSSQGTLVTVSSGGGGSGGGGSGGGGSGGGGSEVQLVESGGGSVQPGGSLRLSCAASGSIFSSTAMAWYRQAPGKRRDLVAAINTVGVTKYADSVKGRFTISRDNAKNTVYLQMNSLRPEDTALYYCTSDPRRGWDTRYWGQGTLVTVSSA
notes: Trivalent ISVD construct; also called 66B02_SO (E1D)-20GS-ALB23002-20GS-66B02_SO-A
In the experiment with cynomolgus CX3CR1 [1], B8 yielded an EC50 of 0.25 nM and a top of 290000. Besides, in the experiment with human CX3CR1 [2], the “% inhibition” value was determined as 102% and the IC50 is 1.1 nM. In the experiment with cynomolgus CX3CR1 [3], the “% inhibition” value was determined as 104% and the IC50 stood at 1.2 nM. In the experiment with human CX3CR1 [4], this molecule had an EC50 of 0.29 nM and a top of 35600.
